Results published in patent US20060234285A1 (Human Genome Sciences, published 2006).

What was measured:
[1] = target: T1, FLAG-tagged soluble form of TNF-gamma-beta (aa 72-251) (human, UniProt O95150 72-251); experiment: coimmunoprecipitation with protein A-Sepharose, anti-Flag western blot
T1 construct: also called FLAG-TL1β; FLAG-TNF-gamma-beta
T1 sequence (looked up): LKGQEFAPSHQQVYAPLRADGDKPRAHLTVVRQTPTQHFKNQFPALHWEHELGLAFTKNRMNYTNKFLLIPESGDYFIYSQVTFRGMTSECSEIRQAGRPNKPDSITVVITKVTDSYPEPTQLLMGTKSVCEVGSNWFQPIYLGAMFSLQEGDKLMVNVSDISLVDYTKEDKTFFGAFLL
Source text: The beads were then precipitated and washed extensively with PBST buffer (PBS, 0.5% Triton X-100) before boiled in SDS-sample buffer. Proteins were resolved on 4-20% Tris-Glycine gels (NOVEX), transferred to nitrocellulose membranes, and blotted with anti-Flag M2 monoclonal antibody (1 microgram/ml, Sigma) and horseradish peroxidase (HRP)-conjugated goat anti-mouse IgG antibody (0.5 microgram/ml).

[2] = target: T2, Human LIGHT, full length, on cells (stably transfected 293F cells; endogenous on activated human T cells) (human, UniProt O43557 1-240); experiment: flow cytometry on 293 cells overexpressing LIGHT
T2 construct: whole, on cells; also called LIGHT-transfectants; cell membrane LIGHT
Protocol: This was tested on 293 cells overexpressing LIGHT according to flow cytometry.

[3] = target: T3, Soluble human FLAG-FasL (synthesized at HGS) (human, UniProt P48023 130-281, limits assumed); experiment: cell-based or functional assay
T3 sequence (looked up): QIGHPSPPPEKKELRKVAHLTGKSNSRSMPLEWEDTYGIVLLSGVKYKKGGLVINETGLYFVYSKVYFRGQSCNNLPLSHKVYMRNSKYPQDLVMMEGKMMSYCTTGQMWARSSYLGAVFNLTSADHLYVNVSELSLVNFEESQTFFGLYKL

[4] = target: T4, Murine FasL on transfected murine L929 cells (murine, UniProt P41047 1-279); experiment: cell-based or functional assay
T4 sequence (looked up): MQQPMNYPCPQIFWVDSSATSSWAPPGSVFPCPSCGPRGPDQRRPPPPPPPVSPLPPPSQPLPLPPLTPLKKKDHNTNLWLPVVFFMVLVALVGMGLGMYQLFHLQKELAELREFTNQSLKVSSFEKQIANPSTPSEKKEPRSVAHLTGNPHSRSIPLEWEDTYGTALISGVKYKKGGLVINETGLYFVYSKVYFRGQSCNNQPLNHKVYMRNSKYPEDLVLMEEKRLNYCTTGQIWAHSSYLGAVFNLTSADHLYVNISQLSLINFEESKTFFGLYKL

[5] = target: T5, TNF-gamma-beta, full length, on transfected cells (human, UniProt O95150 1-251); experiment: flow cytometry on HEK293F cells expressing full length TNF-gamma-beta
T5 construct: whole, on cells; also called TL1β
T5 sequence (looked up): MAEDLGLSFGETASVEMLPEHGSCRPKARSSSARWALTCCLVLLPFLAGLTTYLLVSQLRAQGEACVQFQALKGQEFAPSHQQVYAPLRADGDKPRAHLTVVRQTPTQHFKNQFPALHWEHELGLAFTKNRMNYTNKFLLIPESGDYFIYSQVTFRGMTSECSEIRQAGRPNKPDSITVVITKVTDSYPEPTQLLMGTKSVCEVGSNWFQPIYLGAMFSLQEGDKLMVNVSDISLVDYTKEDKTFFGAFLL
Protocol: One million cells, in 0.1 ml of FACS buffer (PBS, 0.1% BSA, 0.1% NaN₃), were incubated with 0.1-1 microgram of protein or antibody at RT for 15 min. The cells were washed with 3 ml of FACS buffer, reacted with biotinylated primary antibody, and stained with PE-conjugated secondary antibody at RT for 15 min. Cells were then washed again, resuspended in 0.5 microgram/ml of propidium iodide, and live cells were gated and analyzed on a FACScan using the CellQuest software (BD Biosciences).

[6] = target: T3, Soluble human FLAG-FasL (synthesized at …); experiment: BIAcore, trimerized FLAG-FasL soluble

T2 sequence (O43557 whole entry): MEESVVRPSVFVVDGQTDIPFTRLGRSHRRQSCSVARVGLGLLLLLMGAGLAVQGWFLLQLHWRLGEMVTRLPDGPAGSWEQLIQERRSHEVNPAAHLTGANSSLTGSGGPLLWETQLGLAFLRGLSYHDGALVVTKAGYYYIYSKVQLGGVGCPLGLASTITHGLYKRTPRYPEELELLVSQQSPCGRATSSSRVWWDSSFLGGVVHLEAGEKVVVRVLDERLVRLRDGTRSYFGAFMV

B1: Human Fas(M1-G169)-Fc fusion protein (Fc fusion, UniProt P25445 26-169, looked up, not shown: a dimerising Fc or GST)
chain: QVTDINSKGLELRKTVTTVETQNLEGLHHDGQFCHKPCPPGERKARDCTVNGDEPDCVPCQEGKEYTDKAHFSSKCRRCRLCDEGHGLEVEINCTRTQNTKCRCKPNFFCNSTVCEHCDPCTKCEHGIIKECTLTSNTKCKEEG
notes: range 1-169; From CHO cells; a disulfide-linked dimer; also called Fas-Fc; FasFc
With B1 the binding result [1] was “no binding”, the binding result [2] was “no binding” and the “cross-linked FLAG-FasL mediated HT-29 cell death; shift of the cytotoxicity curve” value [3] was about 10 fold. For the same binder, the “IC50 of inhibition of killing of A20 target cells by murine FasL-transfected L929 cells” value [4] was about 0.1 µg/mL, the binding result [5] was “no binding” and the Kd [6] was 7.4 nM.
